These results are taken from patent publication US20130034568A1 (UNIVERSITY OF LOUISVILLE RESEARCH FOUNDATION, published 2013).

The target in experiment [1] is C5a receptor (C5aR; CD88), mouse, on peritoneal macrophages (mouse) (UniProt P30993). Kind of experiment: cell-based or functional assay.
Experiment [2] has as its target T1, TLR5, mouse, on peritoneal macrophages (mouse, UniProt Q9JLF7 27-859).
T1 construct: whole, on cells; Negative control in FRET; detected with antibody clone 85B152.5; also called Toll-like receptor 5
The experiment in a line: FRET, acceptor photobleaching, labelled antibodies on P. gingivalis-stimulated mouse macrophages. As to the method: (§1) Upon stimulation for 10 min at 37° C. with P. gingivalis, mouse macrophages were labeled with a mixture of Cy3-conjugated (donor) and Cy5-conjugated (acceptor) antibodies, as indicated in FIG. 4I. In additional experiments shown in FIG. 4I, FITC-labeled P. gingivalis was used as donor and TRITC-labeled receptors served as acceptors. The cells were washed and fixed, and energy transfer between various donor-acceptor pairs was calculated from the increase in donor fluorescence after acceptor photobleaching (REF 9, 14). […] The conjugation of antibodies to Cy3 or Cy5 was performed using kits from Amersham Biosciences.

The target of experiment [3] is T2, CXC-chemokine receptor 4 (CXCR4), mouse, on peritoneal macrophages (mouse, UniProt P70658 1-359).
T2 construct: whole, on cells
T2 sequence (P70658 whole entry): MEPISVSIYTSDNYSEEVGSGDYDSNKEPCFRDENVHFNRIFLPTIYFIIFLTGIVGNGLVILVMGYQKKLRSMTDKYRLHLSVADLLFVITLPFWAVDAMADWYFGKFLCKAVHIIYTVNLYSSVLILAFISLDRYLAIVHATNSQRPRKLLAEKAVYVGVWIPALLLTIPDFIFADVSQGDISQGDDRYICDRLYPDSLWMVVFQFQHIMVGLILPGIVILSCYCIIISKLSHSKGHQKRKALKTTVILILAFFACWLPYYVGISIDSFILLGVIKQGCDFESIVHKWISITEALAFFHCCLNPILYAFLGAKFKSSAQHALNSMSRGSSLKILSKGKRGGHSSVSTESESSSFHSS
Kind of experiment: FRET, acceptor photobleaching, labelled antibodies on P. gingivalis-challenged mouse macrophages. Here is the method: as §1

T1 sequence (Q9JLF7 27-859): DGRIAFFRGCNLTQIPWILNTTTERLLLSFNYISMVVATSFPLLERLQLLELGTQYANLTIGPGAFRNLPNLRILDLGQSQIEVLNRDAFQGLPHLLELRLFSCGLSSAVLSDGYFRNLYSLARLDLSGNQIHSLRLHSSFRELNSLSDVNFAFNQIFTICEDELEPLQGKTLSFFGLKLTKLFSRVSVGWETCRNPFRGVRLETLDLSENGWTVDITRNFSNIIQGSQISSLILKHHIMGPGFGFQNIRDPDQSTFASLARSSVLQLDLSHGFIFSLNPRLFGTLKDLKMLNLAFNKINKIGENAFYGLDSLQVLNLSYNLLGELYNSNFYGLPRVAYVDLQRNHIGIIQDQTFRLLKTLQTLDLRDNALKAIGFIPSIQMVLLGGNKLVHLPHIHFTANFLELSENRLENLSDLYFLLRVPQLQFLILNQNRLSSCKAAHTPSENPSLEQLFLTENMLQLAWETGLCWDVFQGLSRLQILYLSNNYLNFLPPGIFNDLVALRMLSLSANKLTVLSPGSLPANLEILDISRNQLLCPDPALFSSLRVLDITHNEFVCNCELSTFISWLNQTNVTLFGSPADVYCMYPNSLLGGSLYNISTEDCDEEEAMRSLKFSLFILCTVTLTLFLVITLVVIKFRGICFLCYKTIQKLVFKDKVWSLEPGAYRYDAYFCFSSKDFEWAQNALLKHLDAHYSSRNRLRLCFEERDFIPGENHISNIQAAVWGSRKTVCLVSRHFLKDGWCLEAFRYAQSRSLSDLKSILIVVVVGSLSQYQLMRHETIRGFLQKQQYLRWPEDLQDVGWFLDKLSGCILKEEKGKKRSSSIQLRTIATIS

In experiment [1], “Mouse C5a (from UniProt P06684 679-755) (ligand)” returned an intracellular cAMP in P. gingivalis-stimulated mouse macrophages of more than 3 fold.

B1: C5a receptor (C5aR; CD88), mouse, on peritoneal macrophages (receptor, UniProt P30993 1-351, looked up)
chain: MDPIDNSSFEINYDHYGTMDPNIPADGIHLPKRQPGDVAALIIYSVVFLVGVPGNALVVWVTAFEARRAVNAIWFLNLAVADLLSCLALPVLFTTVLNHNYWYFDATACIVLPSLILLNMYASILLLATISADRFLLVFKPIWCQKVRGTGLAWMACGVAWVLALLLTIPSFVYREAYKDFYSEHTVCGINYGGGSFPKEKAVAILRLMVGFVLPLLTLNICYTFLLLRTWSRKATRSTKTLKVVMAVVICFFIFWLPYQVTGVMIAWLPPSSPTLKRVEKLNSLCVSLAYINCCVNPIIYVMAGQGFHGRLLRSLPSIIRNALSEDSVGRDSKTFTPSTTDTSTRKSQAV
notes: whole, on cells; In FRET it was detected with a dye-labelled mouse-specific monoclonal antibody (clone 20/70); also called complement C5a receptor
Turning to B1, the binding result is “no binding” in experiment [2] and “binds” in experiment [3].
